From patent US6403087

Legend:
[1] = biological target: surface TNF receptors on HT29 cells; assay: cell-based or functional assay
[2] = biological target: murine surface LT ligand on PMA-activated TIMI-4 cells (mouse) (UniProt P09225); assay: FACS on TIMI-4 cells; mAb at 0.1 µg/ml preincubated, washed, then 1 µg/ml mLT-β-R-Fc
[3] = biological target: murine surface LT ligand on PMA-activated TIMI-4 cells (mouse) (UniProt P09225); assay: FACS on TIMI-4 cells; mAb at 3.0 µg/ml preincubated, washed, then 1 µg/ml mLT-β-R-Fc
[4] = biological target: murine surface LT ligand on PMA-activated TIMI-4 cells (mouse) (UniProt P09225); assay: FACS on TIMI-4 cells; mAb at 100.0 µg/ml preincubated, washed, then 1 µg/ml mLT-β-R-Fc
[5] = biological target: murine surface LT ligand on PMA-activated TIMI-4 cells (mouse) (UniProt P09225); assay: FACS on TIMI-4 cells; mAb at 30.0 µg/ml preincubated, washed, then 1 µg/ml mLT-β-R-Fc
[6] = biological target: murine surface LT ligand on PMA-activated TIMI-4 cells (mouse) (UniProt P09225); assay: FACS on TIMI-4 cells; mAb at 1.0 µg/ml preincubated, washed, then 1 µg/ml mLT-β-R-Fc
[7] = biological target: murine surface LT ligand on PMA-activated TIMI-4 cells (mouse) (UniProt P09225); assay: FACS on TIMI-4 cells; mAb at 0.01 µg/ml preincubated, washed, then 1 µg/ml mLT-β-R-Fc
[8] = biological target: murine surface LT ligand on PMA-activated TIMI-4 cells (mouse) (UniProt P09225); assay: FACS on TIMI-4 cells; mAb at 10.0 µg/ml preincubated, washed, then 1 µg/ml mLT-β-R-Fc
[9] = biological target: murine surface LT ligand on PMA-activated TIMI-4 cells (mouse) (UniProt P09225); assay: FACS on TIMI-4 cells; mAb at 0.03 µg/ml preincubated, washed, then 1 µg/ml mLT-β-R-Fc
[10] = biological target: murine surface LT ligand on PMA-activated TIMI-4 cells (mouse) (UniProt P09225); assay: FACS on TIMI-4 cells; mAb at 0.3 µg/ml preincubated, washed, then 1 µg/ml mLT-β-R-Fc

Chain of murine surface LT ligand on PMA-activated TIMI-4 cells (mouse) (P09225 34-202, chain 1 of 2): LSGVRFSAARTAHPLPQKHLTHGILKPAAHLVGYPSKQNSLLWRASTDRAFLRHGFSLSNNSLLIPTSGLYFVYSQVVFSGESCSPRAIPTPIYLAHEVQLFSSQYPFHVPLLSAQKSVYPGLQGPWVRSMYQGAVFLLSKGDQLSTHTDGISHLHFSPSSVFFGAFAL
Chain of murine surface LT ligand on PMA-activated TIMI-4 cells (mouse) (P41155 whole entry, chain 2 of 2, further chain): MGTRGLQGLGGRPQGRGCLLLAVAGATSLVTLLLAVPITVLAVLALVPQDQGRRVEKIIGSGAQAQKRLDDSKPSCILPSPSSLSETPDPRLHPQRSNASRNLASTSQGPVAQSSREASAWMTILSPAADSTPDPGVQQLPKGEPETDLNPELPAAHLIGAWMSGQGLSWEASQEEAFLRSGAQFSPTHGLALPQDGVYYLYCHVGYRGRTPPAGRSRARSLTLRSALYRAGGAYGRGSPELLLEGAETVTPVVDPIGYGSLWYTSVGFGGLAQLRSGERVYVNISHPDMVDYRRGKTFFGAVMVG
Chain of hTNF (P01375 77-233 limits assumed): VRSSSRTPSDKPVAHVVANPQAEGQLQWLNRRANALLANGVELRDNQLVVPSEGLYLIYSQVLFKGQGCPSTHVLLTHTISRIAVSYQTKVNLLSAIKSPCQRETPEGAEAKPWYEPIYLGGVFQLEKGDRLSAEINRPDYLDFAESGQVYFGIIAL

| Substance | Concentration of Cytotoxic Agent (ng/ml) Resulting in 50% Growth Inhibition of HT29 cells, in the presence of 5 µg/ml hu-IgG control [1] [ng/mL] | % Inh (Percent Inhibition) of mLT-β-R-Fc binding [2] [%] | MFCI (Mean Fluorescence Channel No.) of bound mLT-β-R-Fc [2] [channel no.] | % Inh (Percent Inhibition) of mLT-β-R-Fc binding [3] [%] | MFCI (Mean Fluorescence Channel No.) of bound mLT-β-R-Fc [3] [channel no.] | % Inh (Percent Inhibition) of mLT-β-R-Fc binding [4] [%] | MFCI (Mean Fluorescence Channel No.) of bound mLT-β-R-Fc [4] [channel no.] | % Inh (Percent Inhibition) of mLT-β-R-Fc binding [5] [%] | MFCI (Mean Fluorescence Channel No.) of bound mLT-β-R-Fc [5] [channel no.] | % Inh (Percent Inhibition) of mLT-β-R-Fc binding [6] [%] | MFCI (Mean Fluorescence Channel No.) of bound mLT-β-R-Fc [6] [channel no.] | % Inh (Percent Inhibition) of mLT-β-R-Fc binding [7] [%] | MFCI (Mean Fluorescence Channel No.) of bound mLT-β-R-Fc [7] [channel no.] | % Inh (Percent Inhibition) of mLT-β-R-Fc binding [8] [%] | MFCI (Mean Fluorescence Channel No.) of bound mLT-β-R-Fc [8] [channel no.] | % Inh (Percent Inhibition) of mLT-β-R-Fc binding [9] [%] | MFCI (Mean Fluorescence Channel No.) of bound mLT-β-R-Fc [9] [channel no.] | % Inh (Percent Inhibition) of mLT-β-R-Fc binding [10] [%] | MFCI (Mean Fluorescence Channel No.) of bound mLT-β-R-Fc [10] [channel no.] |
| --- | --- | --- | --- | --- | --- | --- | --- | --- | --- | --- | --- | --- | --- | --- | --- | --- | --- | --- | --- |
| hTNF (from UniProt P01375 77-233) (ligand) | 0.08 | – | – | – | – | – | – | – | – | – | – | – | – | – | – | – | – | – | – |
| hLT-α (from UniProt P01374 35-205) (ligand) | 3 | – | – | – | – | – | – | – | – | – | – | – | – | – | – | – | – | – | – |
| hamster anti-mLT-α mAb AF.B3 (antibody) | – | 0 | 86 | 0 | 88 | 0 | 92 | 0 | 94 | 0 | 89 | 2 | 84 | 0 | 95 | 0 | 86 | 2 | 84 |
| hamster anti-mouse LT-α/β mAb BB.F6 (antibody) | – | 44 | 51 | 86 | 17 | 98 | 8 | 95 | 10 | 71 | 29 | 18 | 71 | 94 | 11 | 23 | 67 | 62 | 36 |
